Results: the supplement of paper PMC9170038

Tested on: K4 kissing-loop RNA reporter
Test: apparent KD of K4 kissing-loop reporter; higher = weaker reporter binding
Conditions: Eterna round: R107
Method: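 RNA-MaP round R107: designed RNA switches with theophylline, tryptophan, arginine or FMN aptamers are transcribed on-chip within common flanks. They are titrated with a labelled K4 kissing-loop RNA reporter in RNA-MaP buffer (100 mM Tris pH 7.5, 80 mM KCl, 4 mM MgCl2), without ligand or with the indicated ligand. Median apparent KD per design.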

[1] = input ligand: theophylline 20 uM
[2] = input ligand: tryptophan 2.4 mM
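Also: bound reporter read as fluorescence of individual clusters on recovered sequencing chips by microscopy, with normalized cluster intensities fitted with a binding model.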

Sequence	apparent KD of K4 kissing-loop reporter (input ligand: FMN 200 uM)	apparent KD of K4 kissing-loop reporter (input ligand: arginine 13.2 mM)	apparent KD of K4 kissing-loop reporter (input ligand: none)	apparent KD of K4 kissing-loop reporter [1]	apparent KD of K4 kissing-loop reporter [2]
GUGGUACAGGCGGCCGCCACUAGUGAUGUUAGUGAUAGAAGAUAUAGUAUAUAUCGGCAUUUAGUUAGGACCGGGCCUGGUGGUG [wwwrcmullin]	424 nM	316 nM	360 nM	367 nM	337 nM
UCGGACCCUGGAGGAUAUGAGUCGAGUGAUGUUCGGCGGUCCAUGCCGGUGCGGCGUUAUGCCCUUUUAGAAGGCCAGGGUCCGA [#2 Exclusion - FMN B Attempt #11 (HarryS)]	277 nM	159 nM	196 nM	207 nM	212 nM
UUUUUAAUCGCAGAUACCAGUCCAGAAUGAAUACUAUAGUGAUGUUAUAAUAAAGGGAAGGACCCUUGGCAGCUGUAAUAUAUUU [AstrosSsTheB#5]	386 nM	315 nM	416 nM	318 nM	298 nM
GGUCGAGUGAUGUUCGAUGUUAUGCAUUCAGAGGAUAUAGGAUUGGCUAGAAGGCUGAAUCGAUCUUCGAGUGAUGUUCGAGGAU [Same State FMN A GF 8]	116 nM	112 nM	117 nM	101 nM	128 nM
UGGACUAGUGUGAGUGAUGUUCACUUCGAUACCAGCAGAGCGAUCUGCCCUUGGCAGCGAGUUAACUGCCGAAAGGCAAGGUCCA [Theo B SS t9a]	457 nM	478 nM	477 nM	457 nM	382 nM
UUUAGAUGAAGUGAUACCAGACUUGAAAGUGAUGUUUUCCAAUAAUUUAAAUUAUUAGCUGUCCCUUGGCAGCACAGUUUAUUUA [JR_ExcTheophyB_Sub008]	229 nM	326 nM	282 nM	346 nM	193 nM
CCGGAGGAAGUCGCUUUUCCUGUGGCAUAGAAGGAUAUCCAAUUAAGGAGAAGGUCUAUCUGCCUUAGUGAUGUUAGGAAGUAGA [theeternabot_sameState_KL_FMN_A_23]	172 nM	89.1 nM	135 nM	162 nM	167 nM
UGAUACCAGACUGAUACCAGCCAGUGAUGUUGGCUAAGCCGAAGAGGUGUCAUAGACACCGGCCCUUGGCAGCAGUCUGGUAUCU [#07 K4 Theophylline B Exclusion]	120 nM	110 nM	120 nM	108 nM	117 nM
UAAGUGAUUCACAAGCUAGAGUUACUCGAAGGAGCGACGAAUUCGUCAGGUAGGUCGCGAGUGAUGUUCGCAUGCUCUAGCAAAU [AK1 Exc Arginine A]	655 nM	681 nM	704 nM	689 nM	650 nM
ACAGGAUCGAAAGAUCCUGAGCAGUCAAAACGAGGACCGGUACGGCCGCCACUCGAAUAAGAGAGUGAUGUUCUCGACUGCAAAA [Omei inspired 10 - Reversed #K4Late]	939 nM	826 nM	1210 nM	1050 nM	223 nM
UUUCGUCUCUGAGGAUAUCAGAGGAGAGUGAUGUUCUCCCAUAGCCCAGUGAUGUUGGAUGCUAUCUGAGAAGGCAGUGGGCGAA [Same State FMN B GF 13]	143 nM	141 nM	164 nM	144 nM	155 nM
AGACCACAAAGUGGUCAGUGUUCGCUCCGGCGAGGACCGGUACGGCCGCCACUCGCGAGUGAUGUUCGCGAGCGGAGCGAACACA [Omei KL Tryp A Exc A v2]	101 nM	86.6 nM	99.9 nM	88.9 nM	95.1 nM
CCUAUCUCAUACGAUACCAGUCAAUAUAAACGAGUGAUGUUCGAAAUAAUAUGCCAUCACGACCCUUGGCAGCGUAUGGGAUAGG [Ex Theophylline B K4 6]	158 nM	88.8 nM	141 nM	214 nM	126 nM
GGGACGCUAGCUCGAAUGUAGUGAUUUGAUACCAGCCUGUCACUUGGCCCUUGGCAGCAAAGCAGAGUGAUGUUCUGACCAACCU [theeternabot_sameState_KL_Theo_A_47]	189 nM	298 nM	235 nM	346 nM	144 nM
UGACUACAAAGGAAAUAAUCCUAGUGAUGUUAGGAUAUGCUGAUAAGCAGAAGGAACUGAGAUCGAAAGAUCUCAAAUGUAGUCU [FmnAX 26 Mat Inspired #SwitchBubble #StaticStem #K4Early]	131 nM	90.1 nM	84.9 nM	96.6 nM	88.2 nM
AGACUACCACACUGUCAAUAGACAGUGUACUAGGAUAUGCUGAUAAGCAGAAGGAGUGAUGUUCCCAGGUAGUCAAUAAAAUAAU [FmnAX 13 U28+C66]	274 nM	189 nM	243 nM	270 nM	225 nM
UCGGGAGGCCGAAGGAGCGCCGCCAGUGAUGUUGGGAGUUAGAUACCAGUGAUGUUGGGCCGGCAGGUAGGUCGCGGCCGCGGAU [Exclusion Arginine B Gf 18]	201 nM	106 nM	147 nM	168 nM	153 nM
AUGGGUUUGGGAGGAUAUCCUUCCCACGUCGAAGUACCGUGCUUGAUGGAGUGAUGUUCGAUCAGAGGAGAAGGCCCGGAUUUAU [Same State FMN B GF21]	754 nM	612 nM	845 nM	806 nM	536 nM
CGCAGUGAUGUUGCUAUUAUUCUUGAUUAACGAGGACCGGUACGGCCGCCACUCGAUUUCUAUCUUAUUUUGUGUUAUGUUGAUU [JR_ExcTryptoA_Sub008]	306 nM	359 nM	333 nM	417 nM	225 nM
CCUUGGGCACGCCCACUAGGAAGCUAGUCUAAGGAUAUCGACUGGACGAGAAGGUAGACGGACCCGAGUGAUGUUCGGACAUAGG [theeternabot_sameState_KL_FMN_A_1]	469 nM	260 nM	215 nM	179 nM	200 nM
UAACUGAAGUGAUGUUUCAGUUCGUCGGAUACCAGUGCCGAUCAUCACCCUUGGCAGCCGUAAUAUUACUUAACAAUGACAGGUU [theeternabot_exclusion_KL_Theo_A_7]	122 nM	107 nM	118 nM	119 nM	108 nM

Sequence	apparent KD of K4 kissing-loop reporter (input ligand: FMN 200 uM)	apparent KD of K4 kissing-loop reporter (input ligand: arginine 13.2 mM)	apparent KD of K4 kissing-loop reporter (input ligand: none)	apparent KD of K4 kissing-loop reporter [1]	apparent KD of K4 kissing-loop reporter [2]
ACAUGUUCCAGUGAUGUUGGCGUACGUGAUACCAGACGAAUAAAAGUCCCUUGGCAGCACAAAUAAGCCAAGAUAGGUGAAUGAU [#04 K4 Theophylline A Exclusion]	403 nM	272 nM	495 nM	538 nM	405 nM
AGUAGGAAACUACAAUCCUCUCUUACUGAAGGAGCGCGUGAAAACGCAGGUAGGUCGCAGGAUUGGAGAGUGAUGUUCUCCUUAA [Ex Arginine A K4 17]	311 nM	331 nM	441 nM	413 nM	320 nM
AGGGACUCUUCGGAGUCCCGGUUAAGGGAUACCAGUGAUGUUGGUCACCCUUGGCAGCCCAGAAACCAAGCCACCAAAGGUGGCA [Omei KL Theo A Exc A v2]	150 nM	127 nM	133 nM	211 nM	121 nM
UCACUACACUGAAGGAGCGUGAGGAGACUAGUGAUGUUGGUCAGAUUCUAUGAUCGUAACUCACAGGUAGGUCGCAGUGUAGUGU [Arg B SS t7]	514 nM	341 nM	518 nM	378 nM	476 nM
GGCAGUGAUGUUGCCAGUGGCAGAUGCGAAGGAGCGCAGUGAGAUGCAGGUAGGUCGCGCAUUGAAAUUGCUGUCACUAAAAUGC [#2]	363 nM	369 nM	371 nM	276 nM	234 nM
GUAGCACUCGGUAGUGAUGUUAUCGAGGACAAGGAUAUCAUCUCAAUGAGAAGGUGUCCUUGAUAACAGCUACGGGAAUAUCCCA [Omei KL FMN A Exc D v4]	386 nM	117 nM	134 nM	120 nM	127 nM
GCCAGUGAUGUUGGCGAACCAACGCAUGCAGAGGAUAUUCGUUCGGGAAGAAGGCUGCAGCGUUCUCUCCCGCAGUGAUGUUGCG [Same State FMN A GF 25]	164 nM	141 nM	169 nM	153 nM	150 nM
AACUCUCAGGCACCCGAGUGAUGUUCGGGCCGAGGACCGGUACGGCCGCCACUCGGGCCUGAGAGAGGUUAUCAAAGAUAGCCAA [Omei KL Tryp A SS A v1]	247 nM	68.5 nM	114 nM	62.7 nM	248 nM
UUCAGACUACUACUAGACAGUAGUAUAUACUAGGAUAUCCAGAUAUGGAGAAGGAGUGAUGUUCCCUAGUAGUAGUGAAUUAAAU [KL-XFMN-A5]	661 nM	380 nM	387 nM	375 nM	335 nM
GUAUCGCUAGGAGGAUAUUUCAAAUCGCCAAUAAAUGGUGAUACGGAGUGAUGUUCCGAUUUACGGAAAGAAGGCCUAGUGAUAC [FMN B 6]	135 nM	269 nM	322 nM	288 nM	268 nM
GCAGCACCGAGUGAUGUUUGGUUCAGCGUGAAGGAUAUAAUAUCUGUUAGAAGGUCAAGUGAGAUUGUCGCGAAUCAGUUUUGAU [theeternabot_exclusion_KL_FMN_A_41]	368 nM	248 nM	309 nM	332 nM	290 nM
CCGCGGCAAGCUCCGGAACCCAUAUUCGAUACCAGCCUUAUCACGGGCCCUUGGCAGCGAGCGUUAGUGAUGUUAGCGGCAUGGU [theeternabot_sameState_KL_Theo_A_27]	528 nM	256 nM	311 nM	276 nM	384 nM
GCAGUGAUGUUGCACGAGUAGGGUAGAGUACGAGGACCGGUACGGCCGCCACUCGUACGGAACUCGCUAAUUUAUGGAAUGGUGA [I]	465 nM	590 nM	752 nM	761 nM	497 nM
UGAUACCAGACGGCCGCCACUCCCGUAAGUCAAAGACUUACGAAGAAGGUUUUUUAGUGAUGUUGGAGGACCGGGUCUGGUAUCU [FiskerMod 19 - Jieux - Exclusion - Tryptophan B]	258 nM	188 nM	210 nM	302 nM	1100 nM
AGUGAUAUAUGAGGAUAUGGGUUAAUUAGUGAGUUAUUUUUAGUGUUGUUUGAUUAGUGAUGUUAUUUAGAAGGCGUGAGUGAUG [awwswmjmullin]	113 nM	75 nM	67.5 nM	130 nM	61.7 nM
AUGCGCGCGGCGGCCGCCACUCGCAUGAGAGUGAUGUUCUCGCCGUGCCCGUAAGGGCGCGGUGUGAGGACCGGGCCGGGCUGCG [#2 Same State - Tryptophan B Attempt #21 (HarryS)]	70.8 nM	66.3 nM	400 nM	319 nM	131 nM
UGUCAUUGGUCUGAUACCAGCUGAUCGGAAACGAUCUUGCUGGAGUGAUGUUCCAGGAAAAGCCCUUGGCAGCAGACCGAUGACU [TheoBS 10 #SwitchBubble #StaticStem]	1320 nM	445 nM	1210 nM	1100 nM	1220 nM
GGGAGGAACUGAGGAUAUUCGAAGAAAUAUAGUGAUGUUAUGUAAGGAGGAGGAGGGAGGGAGGAAGGAGAAGGCAGAAGAGGAG [ExFMNB.A]	428 nM	415 nM	500 nM	294 nM	433 nM
UGUCAUUGGUCGGCCGCCACUCCAUAAUGAGUGAUGUUCUAAAAGACGGAUCGAAAGAUCUGUCGGAGGACCGGGACCGAUGACU [FiskerMod 5 - Jieux - Same State - Tryptophan B]	566 nM	456 nM	680 nM	799 nM	267 nM
UGAUAGGACAGAAGGAGCGGAAGUGAUGUUUCCAAAAGGUAAAGGUGUCAAAAGACACCCUUCCAGGUAGGUCGCUGUCCUAUCU [ArgBX 12 #Palindromic #SwitchBubble #StaticStem]	119 nM	124 nM	113 nM	126 nM	103 nM
UUCUACGUGCAAGGAUAUCCAUACGCUGCCCAGCGGGUAGCGAUAUAUGGAGUGAUGUUCCAUGUAGGAGAAGGUGCACUGUCCU [Atrea]	149 nM	386 nM	457 nM	466 nM	475 nM
